Measured values reported in article PMC6778148 (2019).
Blank lines part the entries; values can stand above or below the binder they belong to.

Assays:
[1] = biological target: T1, PSD-95-12, purified tandem PDZ domains of PSD-95 (rat, UniProt P31016 61-249); assay: ITC
[2] = biological target: T1, PSD-95-12, purified tandem PDZ domains …; assay: SPR
[3] = biological target: SAP97-12, purified tandem PDZ domains of SAP97 (rat, UniProt Q62696 220-408); assay: competition against divalent ligand
[4] = biological target: PSD-93-12, purified tandem PDZ domains of PSD-93 (rat, UniProt Q63622 93-282); assay: competition against divalent ligand
[5] = biological target: T2, SAP102-12, purified tandem PDZ domains of SAP102 (rat, UniProt Q62936 145-333); assay: competition against divalent ligand
T2 chain: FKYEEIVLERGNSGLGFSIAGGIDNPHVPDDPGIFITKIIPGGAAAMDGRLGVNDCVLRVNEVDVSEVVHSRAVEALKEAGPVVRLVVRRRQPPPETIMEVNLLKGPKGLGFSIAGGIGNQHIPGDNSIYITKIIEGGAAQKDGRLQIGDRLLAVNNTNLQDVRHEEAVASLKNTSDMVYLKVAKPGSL

[6] = biological target: T1, PSD-95-12, purified tandem PDZ domains …

T1 sequence (P31016 61-249): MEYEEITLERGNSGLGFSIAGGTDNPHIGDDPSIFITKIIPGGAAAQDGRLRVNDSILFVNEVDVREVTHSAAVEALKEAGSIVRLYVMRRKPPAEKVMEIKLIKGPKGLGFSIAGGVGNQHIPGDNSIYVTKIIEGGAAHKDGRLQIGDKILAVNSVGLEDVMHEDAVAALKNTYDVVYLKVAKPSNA
Sequence of PSD-93-12, purified tandem PDZ domains of PSD-93 (Q63622 93-282): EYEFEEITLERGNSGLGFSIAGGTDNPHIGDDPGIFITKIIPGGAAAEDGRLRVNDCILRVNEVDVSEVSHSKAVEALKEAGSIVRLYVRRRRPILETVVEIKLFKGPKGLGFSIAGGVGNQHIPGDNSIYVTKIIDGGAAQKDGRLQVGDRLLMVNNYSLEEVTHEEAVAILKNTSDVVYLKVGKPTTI
Sequence of SAP97-12, purified tandem PDZ domains of SAP97 (Q62696 220-408): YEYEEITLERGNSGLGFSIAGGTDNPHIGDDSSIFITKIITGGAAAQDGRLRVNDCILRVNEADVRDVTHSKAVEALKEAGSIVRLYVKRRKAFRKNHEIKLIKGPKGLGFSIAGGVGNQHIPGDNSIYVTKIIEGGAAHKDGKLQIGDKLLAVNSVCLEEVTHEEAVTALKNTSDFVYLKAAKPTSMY

- Kd [1]: 820 nM
B1: Xph18, evolved ^10FN3 domain (recombinant) (designed binder)
chain: SSVSSVPTKLEVVAATPTSLLISWDAHSRMAWVNYYRITYGETGGNSPVQEFTVPGSSSTATISGLSPGVDYTITVYANGGGFRRGMAPISINYRT

- koff [2]: 0.068 s⁻¹
B2: biotinylated Xph20 (designed binder)
chain: SSVSSVPTKLEVVAATPTSLLISWDAVAKNVKVGYYRITYGETGGNSPVQEFTVPGSSSTATISGLKPGVDYTITVYANGVLSKMVLPISINYRT
modifications: biotin on the biotin acceptor peptide

- Kd [1]: 2200 nM
B3: Xph15, evolved ^10FN3 domain (recombinant) (designed binder)
chain: SSVSSVPTKLEVVAATPTSLLISWDAGPRNVSYYRITYGETGGNSPVQEFTVPGSSSTATISGLSPGVDYTITVYASGHVSTLMTPISINYRT

- Ki [3]: 900 nM
- Ki [4]: 261 nM
- Ki [5]: 1440 nM
- Ki [6]: 36 nM
B4: Xph20-ETWV (designed binder)
chain: MASHHHHHHHHHHENLYFQSGSGSSVSSVPTKLEVVAATPTSLLISWDAVAKNVKVGYYRITYGETGGNSPVQEFTVPGSSSTATISGLKPGVDYTITVYANGVLSKMVLPISINYRTLEGGSGGSGGSGGSGGSGGSGGSGGSGGSGGSGGSGGSGTETWV
